How the values were obtained:
[1] = tested on: Nogo-66, MAG and myelin; experiment: Blocking of Nogo-66, MAG and myelin action in vitro
[2] = tested on: DRG neurons; experiment: Neurite outgrowth assay, myelin mixed with test protein (Example 10); format: cell-based; conditions: P3-4 rat DRG; spotted mixed with CNS myelin
Description: Lab-Tek® culture slides (4 wells) were coated with 0.1 mg/ml poly-D-lysine (Sigma®). CNS myelin alone or mixed with sNogoR310, sNogoR310-Fc fusion protein, mAb 5B10 or control PBS were separately spotted as 3 μl drops. Fluorescent microspheres (Polysciences) were added to the myelin/PBS to allow later identification of the drops (Grandpre et al, Nature 403, 2000). Lab-Tek® slides were then rinsed and coated with 10 μg/ml laminin (Gibco™).
Dorsal root ganglions (DRG's) from P3-4 Sprague Dawley rat pups were dissociated with 1 mg/ml collagenase type 1 (Worthington), triturated with fire-polished Pasteur pipettes pre-plated to enrich in neuronal cells and finally plated at 23,000 cells/well on the pre-coated Labtek culture slides. The culture medium was F12 containing 5% heat inactivated donor horse serum, 5% heat inactivated fetal bovine serum and 50 ng/ml MNGF and incubated at 37° C. and 5% CO2 for 6 hours.
Slides were fixed for 20 minutes with 4% paraformaldehyde containing 20% sucrose and stained for the neuronal marker anti beta-III-tubulin (Covance TUJ1) diluted 1:500. As secondary antibody anti-mouse Alexa Fluor® 594 (Molecular Probes) was diluted 1:300 and slides were coverslipped with Gel/Mount™ (Biømeda™). 5× digital images were acquired with OpenLab™ software and analyzed by using the MetaMorph® software for quantification of neurite outgrowth.

[3] = tested on: rat spinal cord dorsal hemisection; experiment: Intrathecal sNogoR310-Fc in rats with mid-thoracic dorsal hemisection; format: in vivo
Source text: (§1) The Basso-Beattie-Bresnahan (BBB) locomotor rating scale (Basso et al., 1996, Neurotrauma 13, 343-359), the inclined plane test and the inclined grid walking test (Li and Strittmatter, 2003, J Neurosci. 2003, 23, 4219-27) were monitored in rats and mice after injury. For the inclined plane test, we measured the maximal angle to which a 50 cm×60 cm board could be angled for 5 sec without the mouse sliding off. For inclined grid walking, the mice were trained to climb a wire grid (35 cm long with 2.54 cm squares) at a slope of 45 degrees. The number of instances in which the hindpaw dropped below the grid plane was scored for each excursion from bottom to top. For the rat behavioral testing, BBB locomotor scale, grid walking and footprint analysis were performed. For grid walking, the rats were trained to walk on a wire grid (70 cm long with 2.54 cm squares), and the number of instances in which the hindpaw dropped below the grid plane was counted. For footprint analysis, the walking patterns of rat hindpaws were recorded with ink during a continuous locomotion across a 90 cm runway, and stride length on each side and stride width were calculated (Metz et al., 2000, Brain Res., 883, 165-177). All of these behavioral tests were performed by at least two individuals. Throughout the surgery, behavioral testing and histologic analysis, researchers were blind to the identity of the compound in the minipump.
We isolated spinal cord 4 mm rostral to and 4 mm caudal to the lesion site (8 mm long in total) from transgenic mice and embedded it in a glutaraldehyde-polymerized albumin matrix, and cut parasagittally on a vibratome (30 μm thick). We collected transverse sections (50 μm) from the spinal cord 5-7 mm rostral to and 5-7 mm caudal, to the injury site. For sNogoR310-Fc injection experiments in rats, the spinal cord extending from 10 mm rostral to 10 mm caudal from the lesion site was cut parasaggitally (50 μm) on a vibrating microtome. Transverse sections were collected from the spinal cord 11-16 mm rostral to and 11-16 mm caudal to the injury site. We incubated the sections with avidin-biotin-peroxidase complex and visualized the BDA tracer by nickel-enhanced diaminobenzidine HRP reaction (Grandpre, 2002, Nature, 417, 547-551). We processed some sections for serotonin immunohistochemistry (anti-5-HT antibody) by indirect immunofluoresence. To visualize the lesion area, we double-stained some sections with antibodies directed against GFAP (Sigma®, St. Louis, Mo.). We mounted, dehydrated and covered the sections with mounting medium.
We fused the ligand binding domain (27-310) of rat Nogo receptor-1 to the rat IgG1 Fc domain to promote stability and purification. We purified protein from stably transfected CHO cells. […]

[4] = tested on: mouse spinal cord dorsal over-hemisection; experiment: Dorsal over-hemisection in gfap::sNogoR310 transgenic mice; format: in vivo
Source text: as §1
We cloned the mouse sNogoR310 cDNA (corresponding to amino acids 1-310 of the Nogo receptor-1) into the NotI site of the C-3123 vector. In this vector, sNogoR310 expression is under the control of the glial fibrillary acidic protein (gfap) gene regulatory elements, which allow high level expression with enhanced secretion from reactive astrocytes at site of injury. We digested the resulting vector sequentially with AatII and SfiI and isolated the gfap::sNogoR310 construct on a 3.4 kb fragment. We microinjected this fragment into embryos to generate transgenic mice. We verified by PCR that the transgene had integrated and identified five founder lines. We crossed heterozygous males of the two founder lines with the highest expression levels to female C57BL/6J mice. We confirmed that the GFAP-positive cells express and secrete sNogoR310 in heterozygous transgenic mice by Western blot analysis using antibody raised against Nogo receptor-1.
We deeply anesthetized adult female heterozygous transgenic or littermate WT mice (10-16 weeks of age) and performed a complete laminectomy, fully exposing the dorsal part of spinal cord at T6 and T7 levels. We performed a dorsal over-hemisection at T6 with a 30-gauge needle and a pair of microscissors to completely sever the dorsal and dorsolateral corticospinal tracts (CSTs). We passed a marked needle across the dorsal part of the spinal cord several times to assure that the lesion was at a depth of 1.0 mm. We sutured the muscle layers over the laminectomies and closed the skin on the back with surgical staples. To trace the corticospinal tracts, we made a burr hole overlying cerebral cortex on the right side into the skull 14 days after spinal cord injury. We applied the tracer BDA (MW 10,000, 10% in PBS) (Molecular Probes, Eugene, Oreg.) to 4 injection sites at a depth of 0.7 mm from the cortical surface. Four weeks after injury, the mice were perfused transcardially with PBS, followed by 4% paraformaldehyde.
We investigated the integrity of descending corticospinal tracts (CST) by injecting anterograde tracer biotin dextran amine (BDA) into the right motor cortex as described in Li and Strittmatter, 2003, J. Neurosci., 23, 4219-27. In littermate WT mice, the prominent dorsal CST (dCST) is tightly bundled rostral to the lesion, and a few dorsolateral CST fibers are visible ipsilaterally. A small number of BDA-labeled short collateral sprouts project into gray matter, particularly in the ventral cord, but the sprouting is largely confined to the side of the cord contralateral to the tracer injection. […]

[5] = tested on: chick neurons; experiment: Neurite outgrowth assay using chick neurons; format: cell-based
[6] = tested on: Nogo receptor-1; experiment: Blocking of ligand binding to Nogo receptor-1 by soluble receptors

B1: sNogoR310-Fc: fusion protein comprising amino acids 26-310 of rat Nogo receptor-1 and a rat Fc fragment (protein)
chain: PCPGACVCYNEPKVTTSRPQQGLQAVPAGIPASSQRIFLHGNRISYVPAASFQSCRNLTILWLHSNALAGIDAAAFTGLTLLEQLDLSDNAQLRVVDPTTFRGLGHLHTLHLDRCGLQELGPGLFRGLAALQYLYLQDNNLQALPDNTFRDLGNLTHLFLHGNRIPSVPEHAFRGLHSLDRLLLHQNHVARVHPHAFRDLGRLMTLYLFANNLSMLPAEVLVPLRSLQYLRLNDNPWVCDCRARPLWAWLQKFRGSSSGVPSNLPQRLAGRDLKRLATSDLEGCA
modifications: left off: a dimerising Fc or GST
notes: fusion protein comprising amino acids 26-310 of rat Nogo receptor-1 and a rat Fc fragment
blocking of Nogo-66, MAG and myelin action [1]: blocks | protection from myelin-mediated inhibition of neurite outgrowth [2]: protected | animals with consistent forelimb-hindlimb coordination and parallel paw position ([3]; 4 weeks after injury): all 9 | total collateral length of each sprout versus NEP 1-40-treated animals ([3]; distal spinal cord): twice as great | serotonin fibers versus control group ([3]; sections 11-15 mm below the lesion): twice as numerous | rubrospinal tract fibers distal to SCI ([3]; transverse sections 11-15 mm distal): many BDA-labeled RST fibers

B2: sNogoR310: soluble Nogo receptor-1 polypeptide, residues 26-310 (human) or 27-310 (rat); mouse form expressed in transgenic mice (protein)
chain: CPGACVCYNEPKVTTSRPQQGLQAVPAGIPASSQRIFLHGNRISYVPAASFQSCRNLTILWLHSNALAGIDAAAFTGLTLLEQLDLSDNAQLRVVDPTTFRGLGHLHTLHLDRCGLQELGPGLFRGLAALQYLYLQDNNLQALPDNTFRDLGNLTHLFLHGNRIPSVPEHAFRGLHSLDRLLLHQNHVARVHPHAFRDLGRLMTLYLFANNLSMLPAEVLVPLRSLQYLRLNDNPWVCDCRARPLWAWLQKFRGSSSGVPSNLPQRLAGRDLKRLATSDLEGCA
protection from myelin-mediated inhibition of neurite outgrowth [2]: protected | grid climbing ([4]; 2-6 weeks post-injury): progressive improvement | BDA-labeled regenerating fibers in the rostral-caudal axis ([4]; any level 1-4 mm caudal to the lesion, each transgenic mouse): 5-15 | sustainable inclined plane angle ([4]; days 7-28 after injury vs control): significantly greater | BBB scores ([4]; lines Tg08 and Tg01 vs control, 7-28 days): significantly higher | fibers on the opposite side of the spinal cord (ipsilateral to tracer injection) ([4]; rostral to dorsal hemisection): 4-12 sprouts per transverse section | sprouting density of collateral sprouts (micro densitometric measurement) ([4]; rostral to lesion, transgenic vs WT): approximately a tenfold increase | CST sprouting ([4]; secreted in transgenic mice): induces CST sprouting | serotonin fibers in ventral horn of caudal spinal cord ([4]; transgenic vs WT): much greater number | protection in similar assay using chick neurons [5]: protective | blocking of binding of NogoA, NogoB, NogoC, MAG and OM-gp to Nogo receptor-1 [6]: block the binding
